The target of the assay is HLA-DR on 1088-EBV cells (autologous EBV-B cells of patient 1088) (human). As to the kind of experiment: cell-based or functional assay.

B1: monoclonal antibody L243 (anti-HLA-DR; IgG2a) (antibody, from another filing, V domains shown)
VH: QIQLVQSGPELKKPGETVKISCKASGFTFTNYGMNWVKQAPGKGLKWMGWINTYTREPTYADDFKGRFAFSLETSASTAYLQINNLKNEDTAKYFCARDITAVVPTGFDYWGQGTTLTVSS
VL: DIQMTQSPASLSVSVGETVTITCRASENIYSNLAWYRQKQGKSPQLLVFAASNLADGVPSRFSGSGSGTQYSLKINSLQSEDFGDYYCQHFWTTPWAFGGGTNLEIKR
Turning to B1, the inhibition of GM-CSF secretion by CD4+ TIL 1088 stimulated with 1088-EBV pulsed with autologous melanoma lysate (mAb 23 ug/ml) is 96%.

The record behind these values is patent US6951917.
